Data on 14 substances can be found in patent publication US20120052069A1.

In this test the target is β-Klotho overexpressed in recombinant human 293T kidney cells. The test can be described thus: cell-based or functional assay.
For the substance “hFc-(L15)-hFGF21(L98R, P171G, S181G) (Fc fusion)”, the EC50 (nM), ELK luciferase assay was found to be 3.43 nM and the Efficacy, ELK luciferase assay amounted to 77.3%.

On to “hFc-(L15)-hFGF21(L98R, P171G, S181K) (Fc fusion)”, for which the EC50 (nM), ELK luciferase assay was 130 nM and the Efficacy, ELK luciferase assay was determined as 87.9%.

“hFc-(L15)-hFGF21(L98R, P171G, GGGGG182-6) (Fc fusion)”: the EC50 (nM), ELK luciferase assay is 4310 nM and the Efficacy, ELK luciferase assay was 99.7%.

In the case of “hFc-(L15)-hFGF21(L98R, P171G, Y179G) (Fc fusion)”, the EC50 (nM), ELK luciferase assay was found to be 61 nM and the Efficacy, ELK luciferase assay was 82.6%.

“hFc-(L15)-hFGF21(L98R, P171G, S181T) (Fc fusion)”: the EC50 (nM), ELK luciferase assay stood at 3.07 nM and the Efficacy, ELK luciferase assay was determined as 77.6%.

Turning to “hFc-(L15)-hFGF21(L98R, P171G, S181L) (Fc fusion)”, the EC50 (nM), ELK luciferase assay was determined as 3.46 nM and the Efficacy, ELK luciferase assay was 72.6%.

For “hFc-(L15)-hFGF21(L98R, P171G, Y179P) (Fc fusion)”, the EC50 (nM), ELK luciferase assay amounted to 428 nM and the Efficacy, ELK luciferase assay is 44.4%.

“hFc-(L15)-hFGF21(L98R, P171G, S181P) (Fc fusion)”: the EC50 (nM), ELK luciferase assay is 33.8 nM and the Efficacy, ELK luciferase assay worked out at 79.5%.

“hFc-(L15)-hFGF21(1-178, L98R, P171G) (Fc fusion)”: the EC50 (nM), ELK luciferase assay was 167 nM and the Efficacy, ELK luciferase assay came out at 63.9%.

Consider “hFc-(L15)-hFGF21(L98R, P171G, A180P) (Fc fusion)”, for which the EC50 (nM), ELK luciferase assay amounted to 617 nM and the Efficacy, ELK luciferase assay is 77.1%.

On to “hFc-(L15)-hFGF21(L98R, P171G, 1-179) (Fc fusion)”, for which the EC50 (nM), ELK luciferase assay was 7.8 nM and the Efficacy, ELK luciferase assay was 77.4%.

In the case of MKEDD-hFGF21-(L15)-hFc (Fc fusion), the EC50 (nM), ELK luciferase assay is 834 nM and the Efficacy, ELK luciferase assay stood at 83.1%.

As to “hFc-(L15)-hFGF21(L98R, P171G, S181A) (Fc fusion)”, the EC50 (nM), ELK luciferase assay is 2.66 nM and the Efficacy, ELK luciferase assay was determined as 73.5%.

“hFc-(L15)-hFGF21(L98R, P171G, S181P, P182) (Fc fusion)”: the EC50 (nM), ELK luciferase assay is 272 nM and the Efficacy, ELK luciferase assay came out at 69.9%.
